“And” between values parts separate entries of the source, which are not always exact repeats. Equal entries are not always repeated.
Molecular target: T1, Human IL-23 (human, UniProt P29460 23-328)
T1 construct: also called huIL-23
T1 sequence 1: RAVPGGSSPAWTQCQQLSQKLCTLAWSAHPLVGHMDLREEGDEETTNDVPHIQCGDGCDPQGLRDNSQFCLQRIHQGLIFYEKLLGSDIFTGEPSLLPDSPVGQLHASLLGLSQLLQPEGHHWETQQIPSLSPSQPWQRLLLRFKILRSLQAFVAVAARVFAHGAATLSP
T1 sequence 2: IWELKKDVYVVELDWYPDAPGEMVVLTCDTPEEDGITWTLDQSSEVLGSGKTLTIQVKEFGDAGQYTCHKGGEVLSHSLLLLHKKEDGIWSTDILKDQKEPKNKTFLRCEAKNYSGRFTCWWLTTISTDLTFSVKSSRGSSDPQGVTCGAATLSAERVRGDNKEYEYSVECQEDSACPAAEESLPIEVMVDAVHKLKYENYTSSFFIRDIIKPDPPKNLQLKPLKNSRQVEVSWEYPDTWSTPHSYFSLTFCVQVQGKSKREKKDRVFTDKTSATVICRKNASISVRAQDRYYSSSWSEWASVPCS
Assay: ELISA, human IL-23 immobilized on plate, HRP anti-IgG detection, four-parameter fit
Method: Re-dissolved crystalline anti-huIL-23p19 mAb 13B8-b was also compared to the original solution antibody by ELISA. Two different lots of each of solution and re-dissolved crystalline anti-huIL-23p19 mAb 13B8-b were tested for their ability to bind to IL-23. Human IL-23 was immobilized onto an ELISA plate, and serial dilutions of anti-huIL-23p19 mAb 13B8-b (solution or re-dissolved crystalline) were added to the wells. After the plates were washed, bound antibody was detected using an HRP-labeled anti-IgG antibody and a colorimetric substrate. Plates were read in a plate reader and the dose response curves were analyzed using a four-parameter logistic fit. At equilibrium, the EC50 of a saturation binding curve reflects the equilibrium binding dissociation constant (KD), where a higher value represents lower affinity, and a lower value represents higher affinity, of the antibody for the ligand. The potency of the test sample is assessed by comparing binding curves of the test samples to a reference material by the ratio of the EC50's. Potency is expressed as percent of reference material, in this case, selected to be lot #1 of the solution form of anti-huIL-23p19 mAb 13B8-b.

EC50: 0.071 nM and 0.106 nM and 0.073 nM and 0.116 nM
B1: humanized anti-human IL-23p19 monoclonal antibody 13B8-b (antibody, human IgG1, kappa, V domains shown)
VH: QVQLVQSGAEVKKPGASVKVSCKASGYIFITYWMTWVRQAPGQGLEWMGQIFPASGSADYNEKFEGRVTMTTDTSTSTAYMELRSLRSDDTAVYYCARGGGGFAYWGQGTLVTVSS
VL: DIQMTQSPSSLSASVGDRVTITCRTSENIYSYLAWYQQKPGKAPKLLIYNAKTLAEGVPSRFSGSGSGTDFTLTISSLQPEDFATYYCQHHYGIPFTFGQGTKVEIKR
notes: Full-length IgG1 kappa; It was tested as never-crystallized solution material (two lots) and as antibody re-dissolved from crystals (two lots); also called anti-huIL-23p19 mAb 13B8-b; hu13B8-b

From patent US20150147337A1 (Merck Sharp & Dohme, published 2015)
